According to patent US11795488B2, “Methods for enzymatic peptide ligation” (NANYANG TECHNOLOGICAL UNIVERSITY, priority 2016, dated 2023):
Substitutions are numbered along the chain they refer to. Like-named read-outs stand apart in the source and are kept apart here.

Assays:
[1] = Proteolytic and protein ligation activity of AEP_C13C04; format: biochemical
Description: Based on the prediction of the sequence alignment, AEP_C13C04 contained the conserved structural motif identical to Quicklase (247-264). […] The cDNA of AEP_C13C04 was then subsequently synthesized and subcloned into pet28b in a similar way as Quicklase.

OaAEP1 = assay: Self-activation (acid-induced self-cleavage) of OaAEP1 and mutants, SDS PAGE; format: biochemical, Oldenlandia affinis; settings: acidic pH
Protocol: To self-activate OaAEP1, 1 mM EDTA and 0.5 mM Tris (2-carboxyethyl) phosphine hydrochloride were added to the immature protein and the pH of the solution was adjusted to 4 with glacial acetic acid. Fractions containing the protein (as analyzed by SDS-PAGE) were pooled and then incubated for 3 to 16 hours at room temperature or 37° C. Protein precipitation at this pH allowed removal of the bulk of the contaminating proteins by centrifugation. Activated proteins were concentrated by ultracentrifugation using a 50 kDa cutoff concentrator (Sartorius) and stored at −80° C.
OaAEP1 was cloned and expressed in E. coli as an ubiquitin fusion protein as reported earlier (FIG. 2) (Harris, K. S., et al., Nat Commun, 2015. 6: p. 10199). Using ion exchange and size exclusion chromatography (SEC), sufficient amounts of pure protein suitable for enzymatic and structural analysis were obtained (FIG. 2B). At the neutral pH of purification (pH=7.4), OaAEP1 was mainly present as a heterodimer, where both monomers are in their zymogenic form, but only one monomer had retained in addition the ubiquitin and N-terminal His-tag, while the fusion moiety was cleaved in the other monomer (labeled as “His-Ub-AEP-FL” and “AEP-FL” in FIG. 2B and FIG. 2C). This heterodimer was subjected to crystallization trials for structural studies (see below). In agreement with reference (Harris, K. S., et al., Nat Commun, 2015. 6: p. 10199), activation of OaAEP1 was optimum for pH values in the range of 3.4-4.0 (FIG. 2D). Following activation, OaAEP1 converts to a monomer in solution according to SEC analysis (“AEP-holo” in FIG. 2C). To test the ability of the protein to be activated in trans, the catalytic residue Cys217 was mutated into Ser217.
Since the crystallization conditions are compatible with OaAEP1 activation, the present crystal structure is likely to have captured one of the conformational states occurring along the activation pathway. To determine whether Gln347 belongs to the segment recognized and cleaved during self-activation, mutagenesis experiments targeting region 346-351 of the OaAEP1 protein were performed (FIG. 4C). The role of Gln347 in OaAEP1 auto-activation was particularly assessed by mutating this residue to Ala, and whether enzyme activation was abolished was examined. Only little impact was found on the mutant enzyme activation (FIG. 4C). Residues Asn346, Asp349 and Asp351 that are next to Gln347 were then targeted. […] Thus, trans-activation requires the presence of at least one of the four Asx/Gln residues (with a slight preference for Asp349 or Asp351) found in this segment of the linker.

peptide substrate = assay: Comparison of cyclization efficiency of gate-keeper Cys247 mutants (MALDI-TOF MS); format: biochemical
Protocol: Native and modified amino acids were purchased from Sigma-Aldrich (USA). All peptides used in this manuscript were synthesized in-house using the solid-phase method and HPLC purified. Cyclization assays were performed in 50-μl reaction mixtures containing 20 mM phosphate buffer, ligases (5 to 700 nM) and peptide substrates (10 to 300 μM). Each reaction was performed in triplicate at 37° C. and quenched by adding 5 μl of 1 M HCl solution. The peptides were separated by using a reversed-phase C18 analytical column (150×2.1 mm, Vydac) with a linear gradient from 10% to 50% acetonitrile over 15 min on a Nexera UHPLC system (Shimadzu). For kinetic analysis, the concentrations of WT OaAEP1, mutant OaAEP1, and butelase 1 were fixed at 700 nM, 50 nM, and 20 nM, respectively. The cyclization velocities were calculated by converting the HPLC-peak areas of remained linear precursors or the cyclized products into concentrations. The identity of each HPLC peak was analyzed by MALDI-TOF MS (ABI 4800 MALDI TOF/TOF). The velocities were input into GraphPad Prism (GraphPad Software, San Diego) to obtain the Michaelis-Menten curve and the kinetic parameters (kcat and Km). Comparison for the cyclization efficiency of various OaAEP1 mutants were performed in a volume of 20 μl of the reaction mixture and analyzed by MALDI-TOF MS after 10 mins or 1 hour ligation reaction.
The pre-ligation conformation of OaAEP1 captured in the present structure was then analyzed to identify several key features that could differentiate an AEP protease from an AEP-like ligase. […] In contrast to AEP proteases, the surface of OaAEP1 facing the catalytic Cys217 appears to be more widely open. Three cysteine residues (Cys247, Cys250, Cys264) are aligned along a shallow cleft at the surface of the enzyme (FIGS. 3C and 3E). Unlike the surface of AEP proteases that contains several bulges, both butelase 1 (using a homology model based on OaAEP1b) and OaAEP1 have residues with smaller side-chains along this patch. A disulfide bond is formed between Cys250 and Cys264, which are conserved in AEP-like ligases butelase 1 and OaAEP1b. This covalent bond is likely to stabilize the local structure and provide an adequate surface allowing the approach of an N-terminal amine incoming group. Conversely, the corresponding surface patch of AEP proteases (PDB: 4AWA) is lined with residues having bulky side-chains like Tyr (FIG. 3E) blocking this channel. It was therefore hypothesized that residue Cys247 which is located at the extremity of the substrate channel is likely to function as a final nucleophile filter (or “gate-keeper”), allowing attack from the N-terminal amine to complete the ligation reaction. […]

B1: AEP_C13C04: Peptidase C13, legumain [OMO86616.1] from Corchorus olitorius, SEQ ID NO:8 (protein, listed as Corchorus olitorius)
chain: MTRLVAGVILLLLSVTGIASAGRDATGDVLRLPSEASRFFRPSDDDEVGTRWAVLIAGSNGYWNYRHQADVCHAYQLLKKGGLKDENIIVFMYDDIAFNYENPRQGIIINSPHGDDVYQDVPKDYTGEEVTVHNFLAAILGNKTAIKGGSGKVVDSGPNDHIFIYYTDHGGPGVLGMPTYPYLYADELIDTLKKKHASGTYKSLVFYLEACESGSIFEGLLPEGLNIYATTASNADESSWGTYCPGEYPSPPPEYETCLGDLYSVAWMEDSDLHNLRTETLHQQYELVKRRTLNGNSAYGSHVMQYGDVGLAKEHLFLYLGTNPANDNFTFIDENSLQPPAKAVNQRDADLVHFWDKYRKAPDGSVRKVEAQKQVVEAMSHRMHVDNSIQLIGKLLFGIERGADVLKTVRPAGQPLVDDWKCLKSMVRTFETHCGSLAQYGMKHMRSIANICNAGIQTEQMAEASSQACVSIPSGQWSSIQKGFSA
[1]
  byproducts: significant byproducts of proteolytic reactions
  proteolytic and protein ligation activities: exhibited both proteolytic and protein ligation activities
[1]; listed as AEP_C13CO4
  proteolytic and protein ligation activities: is a peptide ligase having the activity of OaAEP1 Cys247Ala
[1]; wild type AEP_C13C04
  enzymatic catalytic efficiency compared with Quicklase: much slower

B2: Asn346Ala-Gln347Ala (protein)
chain: MVRYLAGAVLLLVVLSVAAAVSGARDGDYLHLPSEVSRFFRPQETNDDHGEDSVGTRWAVLIAGSKGYANYRHQAGVCHAYQILKRGGLKDENIVVFMYDDIAYNESNPRPGVIINSPHGSDVYAGVPKDYTGEEVNAKNFLAAILGNKSAITGGSGKVVDSGPNDHIFIYYTDHGAAGVIGMPSKPYLYADELNDALKKKHASGTYKSLVFYLEACESGSMFEGILPEDLNIYALTSTNTTESSWCYYCPAQENPPPPEYNVCLGDLFSVAWLEDSDVQNSWYETLNQQYHHVDKRISHASHATQYGNLKLGEEGLFVYMGSNPANDNYTSLDGNALTPSSIVVAARDADLLHLWEKFRKAPEGSARKEEAQTQIFKAMSHRVHIDSSIKLIGKLLFGIEKCTEILNAVRPAGQPLVDDWACLRSLVGTFETHCGSLSEYGMRHTRTIANICNAGISEEQMAEAASQACASIP
OaAEP1
  self-activation (auto-activation): can still be activated

B3: Asp349Ala-Asp351Ala (protein)
chain: B2 chain with A346N, A347Q, D349A, D351A
OaAEP1
  self-activation (auto-activation): can still be activated

B4: Cys247Gly: OaAEP1 gate-keeper mutant Cys247 to Gly (protein)
chain: B2 chain with C247G, A346N, A347Q
Peptide substrate; N-terminal amine group acetylated
  alternative reaction when N-terminal amine is not available: catalyzes peptide hydrolysis as alternative reaction
Peptide substrate; gate-keeper position 247 mutants
  ligase activity compared to WT OaAEP1: negatively affects the ligase activity

B5: Asn346Ala-Asp349Ala-Asp351Ala (protein)
chain: B2 chain with A347Q, D349A, D351A
OaAEP1
  self-activation (auto-activation): can still be activated
OaAEP1; listed as A3
  self-activation (auto-activation): more severe loss of function phenotype
